Results from paper PMC9135631 (2022).

target: 8xHis-tagged Teneurin-2 extracellular domain (Ten2^ECD-His) (UniProt Q9NT68 401-2774, HA/Flag epitopes left out; isoform assumed; signal peptide removed and GPS autoproteolysis expected)

Binder	Kd [nM]
Latrophilin-3 ADHD-related variant R465S (Lphn3^R465S) (receptor) MWPSQLLIFMMLLAPIIHAFSRAPIPMAVVRRELSCESYPIELRCPGTDVIMIESANYGRTDDKICDSDPAQMENIRCYLPDAYKIMSQRCNNRTQCAVVAGPDVFPDPCPGTYKYLEVQYECVPYKVEQKVFLCPGLLKGVYQSEHLFESDHQSGAWCKDPLQASDKIYYMPWTPYRTDTLTEYSSKDDFIAGRPTTTYKLPHRVDGTGFVVYDGALFFNKERTRNIVKFDLRTRIKSGEAIIANANYHDTSPYRWGGKSDIDLAVDENGLWVIYATEQNNGKIVISQLNPYTLRIEGTWDTAYDKRSASNAFMICGILYVVKSVYEDDDNEATGNKIDYIYNTDQSKDSLVDVPFPNSYQYIAAVDYNPRDNLLYVWNNYHVVKYSLDFGPLDSRSGQAHHGQVSYISPPIHLDSELERPSVKDISTTGPLGMGSTTTSTTLRTTTLSPGRSTTPSVSGRRNSSTSTPSPAVEVLDDMTTHLPSASSQIPALEESCEAVEAREIMWFKTRQGQIAKQPCPAGTIGVSTYLCLAPDGIWDPQGPDLSNCSSPWVNHITQKLKSGETAANIARELAEQTRNHLNAGDITYSVRAMDQLVGLLDVQLRNLTPGGKDSAARSLNKLQKRERSCRAYVQAMVETVNNLLQPQALNAWRDLTTSDQLRAATMLLHTVEESAFVLADNLLKTDIVRENTDNIKLEVARLSTEGNLEDLKFPENMGHGSTIQLSANTLKQNGRNGEIRVAFVLYNNLGPYLSTENASMKLGTEALSTNHSVIVNSPVITAAINKEFSNKVYLADPVVFTVKHIKQSEENFNPNCSFWSYSKRTMTGYWSTQGCRLLTTNKTHTTCSCNHLTNFAVLMAHVEVKHSDAVHDLLLDVITWVGILLSLVCLLICIFTFCFFRGLQSDRNTIHKNLCISLFVAELLFLIGINRTDQPIACAVFAALLHFFFLAAFTWMFLEGVQLYIMLVEVFESEHSRRKYFYLVGYGMPALIVAVSAAVDYRSYGTDKVCWLRLDTYFIWSFIGPATLIIMLNVIFLGIALYKMFHHTAILKPESGCLDNINYEDNRPFIKSWVIGAIALLCLLGLTWAFGLMYINESTVIMAYLFTIFNSLQGMFIFIFHCVLQKKVRKEYGKCLRTHCCSGKSTESSIGSGKTSGSRTPGRYSTGSQSRIRRMWNDTVRKQSESSFITGDINSSASLNREPYRETSMGVKLNIAYQIGASEQCQGYKCHGYSTTEW	1.06
Latrophilin-3 ADHD-related variant T783M (Lphn3^T783M) (receptor) MWPSQLLIFMMLLAPIIHAFSRAPIPMAVVRRELSCESYPIELRCPGTDVIMIESANYGRTDDKICDSDPAQMENIRCYLPDAYKIMSQRCNNRTQCAVVAGPDVFPDPCPGTYKYLEVQYECVPYKVEQKVFLCPGLLKGVYQSEHLFESDHQSGAWCKDPLQASDKIYYMPWTPYRTDTLTEYSSKDDFIAGRPTTTYKLPHRVDGTGFVVYDGALFFNKERTRNIVKFDLRTRIKSGEAIIANANYHDTSPYRWGGKSDIDLAVDENGLWVIYATEQNNGKIVISQLNPYTLRIEGTWDTAYDKRSASNAFMICGILYVVKSVYEDDDNEATGNKIDYIYNTDQSKDSLVDVPFPNSYQYIAAVDYNPRDNLLYVWNNYHVVKYSLDFGPLDSRSGQAHHGQVSYISPPIHLDSELERPSVKDISTTGPLGMGSTTTSTTLRTTTLSPGRSTTPSVSGRRNRSTSTPSPAVEVLDDMTTHLPSASSQIPALEESCEAVEAREIMWFKTRQGQIAKQPCPAGTIGVSTYLCLAPDGIWDPQGPDLSNCSSPWVNHITQKLKSGETAANIARELAEQTRNHLNAGDITYSVRAMDQLVGLLDVQLRNLTPGGKDSAARSLNKLQKRERSCRAYVQAMVETVNNLLQPQALNAWRDLTTSDQLRAATMLLHTVEESAFVLADNLLKTDIVRENTDNIKLEVARLSTEGNLEDLKFPENMGHGSTIQLSANTLKQNGRNGEIRVAFVLYNNLGPYLSTENASMKLGTEALSTNHSVIVNSPVIMAAINKEFSNKVYLADPVVFTVKHIKQSEENFNPNCSFWSYSKRTMTGYWSTQGCRLLTTNKTHTTCSCNHLTNFAVLMAHVEVKHSDAVHDLLLDVITWVGILLSLVCLLICIFTFCFFRGLQSDRNTIHKNLCISLFVAELLFLIGINRTDQPIACAVFAALLHFFFLAAFTWMFLEGVQLYIMLVEVFESEHSRRKYFYLVGYGMPALIVAVSAAVDYRSYGTDKVCWLRLDTYFIWSFIGPATLIIMLNVIFLGIALYKMFHHTAILKPESGCLDNINYEDNRPFIKSWVIGAIALLCLLGLTWAFGLMYINESTVIMAYLFTIFNSLQGMFIFIFHCVLQKKVRKEYGKCLRTHCCSGKSTESSIGSGKTSGSRTPGRYSTGSQSRIRRMWNDTVRKQSESSFITGDINSSASLNREPYRETSMGVKLNIAYQIGASEQCQGYKCHGYSTTEW	0.756

More lines, in order of falling Kd, values ahead:

Kd [nM]	Binder
1.15	Latrophilin-3 ADHD-related variant A247S (Lphn3^A247S) (receptor) MWPSQLLIFMMLLAPIIHAFSRAPIPMAVVRRELSCESYPIELRCPGTDVIMIESANYGRTDDKICDSDPAQMENIRCYLPDAYKIMSQRCNNRTQCAVVAGPDVFPDPCPGTYKYLEVQYECVPYKVEQKVFLCPGLLKGVYQSEHLFESDHQSGAWCKDPLQASDKIYYMPWTPYRTDTLTEYSSKDDFIAGRPTTTYKLPHRVDGTGFVVYDGALFFNKERTRNIVKFDLRTRIKSGEAIIANSNYHDTSPYRWGGKSDIDLAVDENGLWVIYATEQNNGKIVISQLNPYTLRIEGTWDTAYDKRSASNAFMICGILYVVKSVYEDDDNEATGNKIDYIYNTDQSKDSLVDVPFPNSYQYIAAVDYNPRDNLLYVWNNYHVVKYSLDFGPLDSRSGQAHHGQVSYISPPIHLDSELERPSVKDISTTGPLGMGSTTTSTTLRTTTLSPGRSTTPSVSGRRNRSTSTPSPAVEVLDDMTTHLPSASSQIPALEESCEAVEAREIMWFKTRQGQIAKQPCPAGTIGVSTYLCLAPDGIWDPQGPDLSNCSSPWVNHITQKLKSGETAANIARELAEQTRNHLNAGDITYSVRAMDQLVGLLDVQLRNLTPGGKDSAARSLNKLQKRERSCRAYVQAMVETVNNLLQPQALNAWRDLTTSDQLRAATMLLHTVEESAFVLADNLLKTDIVRENTDNIKLEVARLSTEGNLEDLKFPENMGHGSTIQLSANTLKQNGRNGEIRVAFVLYNNLGPYLSTENASMKLGTEALSTNHSVIVNSPVITAAINKEFSNKVYLADPVVFTVKHIKQSEENFNPNCSFWSYSKRTMTGYWSTQGCRLLTTNKTHTTCSCNHLTNFAVLMAHVEVKHSDAVHDLLLDVITWVGILLSLVCLLICIFTFCFFRGLQSDRNTIHKNLCISLFVAELLFLIGINRTDQPIACAVFAALLHFFFLAAFTWMFLEGVQLYIMLVEVFESEHSRRKYFYLVGYGMPALIVAVSAAVDYRSYGTDKVCWLRLDTYFIWSFIGPATLIIMLNVIFLGIALYKMFHHTAILKPESGCLDNINYEDNRPFIKSWVIGAIALLCLLGLTWAFGLMYINESTVIMAYLFTIFNSLQGMFIFIFHCVLQKKVRKEYGKCLRTHCCSGKSTESSIGSGKTSGSRTPGRYSTGSQSRIRRMWNDTVRKQSESSFITGDINSSASLNREPYRETSMGVKLNIAYQIGASEQCQGYKCHGYSTTEW
0.896	Latrophilin-3 ADHD-related variant D615N (Lphn3^D615N) (receptor) MWPSQLLIFMMLLAPIIHAFSRAPIPMAVVRRELSCESYPIELRCPGTDVIMIESANYGRTDDKICDSDPAQMENIRCYLPDAYKIMSQRCNNRTQCAVVAGPDVFPDPCPGTYKYLEVQYECVPYKVEQKVFLCPGLLKGVYQSEHLFESDHQSGAWCKDPLQASDKIYYMPWTPYRTDTLTEYSSKDDFIAGRPTTTYKLPHRVDGTGFVVYDGALFFNKERTRNIVKFDLRTRIKSGEAIIANANYHDTSPYRWGGKSDIDLAVDENGLWVIYATEQNNGKIVISQLNPYTLRIEGTWDTAYDKRSASNAFMICGILYVVKSVYEDDDNEATGNKIDYIYNTDQSKDSLVDVPFPNSYQYIAAVDYNPRDNLLYVWNNYHVVKYSLDFGPLDSRSGQAHHGQVSYISPPIHLDSELERPSVKDISTTGPLGMGSTTTSTTLRTTTLSPGRSTTPSVSGRRNRSTSTPSPAVEVLDDMTTHLPSASSQIPALEESCEAVEAREIMWFKTRQGQIAKQPCPAGTIGVSTYLCLAPDGIWDPQGPDLSNCSSPWVNHITQKLKSGETAANIARELAEQTRNHLNAGDITYSVRAMDQLVGLLDVQLRNLTPGGKNSAARSLNKLQKRERSCRAYVQAMVETVNNLLQPQALNAWRDLTTSDQLRAATMLLHTVEESAFVLADNLLKTDIVRENTDNIKLEVARLSTEGNLEDLKFPENMGHGSTIQLSANTLKQNGRNGEIRVAFVLYNNLGPYLSTENASMKLGTEALSTNHSVIVNSPVITAAINKEFSNKVYLADPVVFTVKHIKQSEENFNPNCSFWSYSKRTMTGYWSTQGCRLLTTNKTHTTCSCNHLTNFAVLMAHVEVKHSDAVHDLLLDVITWVGILLSLVCLLICIFTFCFFRGLQSDRNTIHKNLCISLFVAELLFLIGINRTDQPIACAVFAALLHFFFLAAFTWMFLEGVQLYIMLVEVFESEHSRRKYFYLVGYGMPALIVAVSAAVDYRSYGTDKVCWLRLDTYFIWSFIGPATLIIMLNVIFLGIALYKMFHHTAILKPESGCLDNINYEDNRPFIKSWVIGAIALLCLLGLTWAFGLMYINESTVIMAYLFTIFNSLQGMFIFIFHCVLQKKVRKEYGKCLRTHCCSGKSTESSIGSGKTSGSRTPGRYSTGSQSRIRRMWNDTVRKQSESSFITGDINSSASLNREPYRETSMGVKLNIAYQIGASEQCQGYKCHGYSTTEW
